From publication PMC11939060
Where two headings read alike, the source gives them in different places.

What was measured:
Experiment in all cases: fluorescence polarization
[1] = biological target: T1, DNMT3B Δ214 (3BΔ214);DNMT3L CLD (3L) (human;human?, UniProt Q9UBC3;Q9UJW3 215-853;179-379, |)
[2] = biological target: DNMT3B PWWP K268A (human, UniProt Q9UBC3 206-355, K268A)
[3] = biological target: DNMT3B PWWP domain (human, UniProt Q9UBC3 206-355)
[4] = biological target: T1, DNMT3B Δ214 (3BΔ214);DNMT3L CLD (3L); remark: listed apart in the source
[5] = biological target: T1, DNMT3B Δ214 (3BΔ214);DNMT3L CLD (3L); remark: listed apart in the source
[6] = biological target: T1, DNMT3B Δ214 (3BΔ214);DNMT3L CLD (3L); remark: listed apart in the source
[7] = biological target: T1, DNMT3B Δ214 (3BΔ214);DNMT3L CLD (3L); remark: listed apart in the source

T1 sequence (Q9UJW3 179-379, stated change not applied, chain 2 of 2, other chains not shown): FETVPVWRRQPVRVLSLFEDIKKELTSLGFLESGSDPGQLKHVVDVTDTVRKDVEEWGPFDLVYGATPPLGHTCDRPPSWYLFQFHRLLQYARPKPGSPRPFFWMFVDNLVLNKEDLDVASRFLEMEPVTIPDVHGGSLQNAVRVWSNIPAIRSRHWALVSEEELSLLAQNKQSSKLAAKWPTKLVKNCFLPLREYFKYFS

B1: 30-bp FAM dsDNA (dsDNA)
DNA 1: CTGAATACTACTTGCGCTCTCTAACCTGAT
DNA 2: ATCAGGTTAGAGAGCGCAAGTAGTATTCAG
In the case of B1, the Kd [1] is reported as 3.51 ± 0.28 µM, the Kd [2] is reported as 24.3 ± 2 µM and the Kd [3] is reported as 9.12 ± 0.67 µM. It also gave a Kd [4] of 2.34 ± 0.15 µM, a Kd [5] of 0.85 ± 0.07 µM and a Kd [6] of 3.5 ± 0.3 µM. The Kd [7] was 1.39 ± 0.12 µM.
